Test results reported in paper PMC5979328, “Establishing a Split Luciferase Assay for Proteinkinase G (PKG) Interaction Studies” (International Journal of Molecular Sciences, 2018).

T1: cGKIα-CBRC (proteinkinase G isoform Iα fused at its C-terminus to the C-terminal fragment of click beetle red … (UniProt P00516 1-671))
T1 construct: cGMP-dependent protein kinase I, alpha isoform (cGKIα, PKGIα); also called PKGIα; cGMP dependent kinase Iα; source: COS-7 cells, calcium phosphate transfection, in living cells; not shown: CBRC (click beetle red luciferase aa 395-542; joined by a 17-residue Gly/Ser linker), C-terminal, kept
T1 sequence (looked up): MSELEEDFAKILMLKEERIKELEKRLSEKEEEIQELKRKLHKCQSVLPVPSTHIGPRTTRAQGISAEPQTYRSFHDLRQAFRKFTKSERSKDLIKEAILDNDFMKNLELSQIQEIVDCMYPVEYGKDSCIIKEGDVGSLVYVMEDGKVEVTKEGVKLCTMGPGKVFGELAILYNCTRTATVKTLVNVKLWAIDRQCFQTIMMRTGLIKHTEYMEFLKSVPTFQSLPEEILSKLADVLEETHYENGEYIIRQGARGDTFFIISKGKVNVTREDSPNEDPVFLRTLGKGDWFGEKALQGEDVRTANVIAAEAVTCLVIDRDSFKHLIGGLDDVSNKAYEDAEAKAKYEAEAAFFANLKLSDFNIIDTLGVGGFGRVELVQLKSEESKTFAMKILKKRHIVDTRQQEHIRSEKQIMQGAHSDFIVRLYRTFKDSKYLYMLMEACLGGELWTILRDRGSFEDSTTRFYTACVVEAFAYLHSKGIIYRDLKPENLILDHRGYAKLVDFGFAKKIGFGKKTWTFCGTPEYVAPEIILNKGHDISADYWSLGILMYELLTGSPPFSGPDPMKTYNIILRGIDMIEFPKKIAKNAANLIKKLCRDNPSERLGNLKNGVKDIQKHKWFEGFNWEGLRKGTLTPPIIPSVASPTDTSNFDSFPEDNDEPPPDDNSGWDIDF


Columns and labels:
[1] = target: T1, cGKIα-CBRC (proteinkinase G isoform Iα …); assay: split reporter (BiFC, NanoBiT); click beetle red luciferase complementation (CBRN/CBRC) in co-transfected COS-7 cells, 15 µg DNA, vector ratios 1:25 to 1:100 (mostly 1:50); cells untreated or stimulated for 24 h with 8-Br-cGMP (0.5-2.5 mM), 8-pCPT-cGMP (100-500 µM) or 8-Br-cAMP (0.125-1 mM); Bright-Glo reagent, plate reader, RLU; conditions: partners not purified
[2] = target: the molecule itself; assay: Western blot of monomer and dimer under non-reducing conditions; primary mesangial cells, control or stimulated with H2O2, non-reducing conditions (Figure S3)

Row | fold signal amplification (100 µM 8-pCPT-cGMP, treated/untreated) [1] [fold] | fold signal amplification (200 µM 8-pCPT-cGMP, treated/untreated) [1] [fold] | fold signal amplification (0.5 mM 8-Br-cGMP, treated/untreated) [1] [fold] | fold signal amplification (500 µM 8-pCPT-cGMP, treated/untreated) [1] [fold] | fold signal amplification (1 mM 8-Br-cGMP, 24 h, against basal luminescence) [1] [fold] | fold signal amplification (1 mM 8-Br-cGMP, treated/untreated) [1] [fold] | fold signal amplification (2.5 mM 8-Br-cGMP, treated/untreated) [1] [fold] | Binder | stoichiometry N [2]
1 | 3.5 | 3.8 | 2.2 | 3.9 | ~3.5 | 3.6 | 2.8 | CBRN-RGS2 (regulator of G-protein signaling 2 fused at its N-terminus to the N-terminal fragment of click beetle red luciferase) (natural protein, UniProt P41220 1-211, looked up, regulator of G-protein signaling 2 (RGS2); cDNA from pCMV6_RGS2 (OriGene); source: COS-7 cells, calcium phosphate transfection, in living cells; not shown: CBRN (click beetle red luciferase aa 1-416; joined by a 17-residue Gly/Ser linker), N-terminal, kept) MQSAMFLAVQHDCRPMDKSAGSGHKSEEKREKMKRTLLKDWKTRLSYFLQNSSTPGKPKTGKKSKQQAFIKPSPEEAQLWSEAFDELLASKYGLAAFRAFLKSEFCEENIEFWLACEDFKKTKSPQKLSSKARKIYTDFIEKEAPKEINIDFQTKTLIAQNIQEATSGCFTTAQKRVYSLMENNSYPRFLESEFYQDLCKKPQITTEPHAT | 
2 |  |  |  |  |  |  |  | cGKIα in primary mesangial cells (enzyme, UniProt P0C605 1-671, looked up, cGMP-dependent protein kinase I, alpha isoform, in primary mesangial cells; also called the kinase; PKGIα) MSELEEDFAKILMLKEERIKELEKRLSEKEEEIQELKRKLHKCQSVLPVPSTHIGPRTTRAQGISAEPQTYRSFHDLRQAFRKFTKSERSKDLIKEAILDNDFMKNLELSQIQEIVDCMYPVEYGKDSCIIKEGDVGSLVYVMEDGKVEVTKEGVKLCTMGPGKVFGELAILYNCTRTATVKTLVNVKLWAIDRQCFQTIMMRTGLIKHTEYMEFLKSVPTFQSLPDEILSKLADVLEETHYENGEYIIRQGARGDTFFIISKGQVNVTREDSPSEDPVFLRTLGKGDWFGEKALQGEDVRTANVIAAEAVTCLVIDRDSFKHLIGGLDDVSNKAYEDAEAKAKYEAEAAFFANLKLSDFNIIDTLGVGGFGRVELVQLKSEESKTFAMKILKKRHIVDTRQQEHIRSEKQIMQGAHSDFIVRLYRTFKDSKYLYMLMEACLGGELWTILRDRGSFEDSTTRFYTACVVEAFAYLHSKGIIYRDLKPENLILDHRGYAKLVDFGFAKKIGFGKKTWTFCGTPEYVAPEIILNKGHDISADYWSLGILMYELLTGSPPFSGPDPMKTYNIILRGIDMIEFPKKIAKNAANLIKKLCRDNPSERLGNLKNGVKDIQKHKWFEGFNWEGLRKGTLTPPIIPSVASPTDTSNFDSFPEDSDEPPPDDNSGWDIDF | 2
